Here are results for one molecule from paper PMC8051872.

In this test the target is wild-type full-length human ADAMTS13 (human) (UniProt Q76LX8).

B1: wild-type full-length human ADAMTS13 (enzyme)
chain: AAGGILHLELLVAVGPDVFQAHQEDTERYVLTNLNIGAELLRDPSLGAQFRVHLVKMVILTEPEGAPNITANLTSSLLSVCGWSQTINPEDDTDPGHADLVLYITRFDLELPDGNRQVRGVTQLGGACSPTWSCLITEDTGFDLGVTIAHEIGHSFGLEHDGAPGSGCGPSGHVMASDGAAPRAGLAWSPCSRRQLLSLLSAGRARCVWDPPRPQPGSAGHPPDAQPGLYYSANEQCRVAFGPKAVACTFAREHLDMCQALSCHTDPLDQSSCSRLLVPLLDGTECGVEKWCSKGRCRSLVELTPIAAVHGRWSSWGPRSPCSRSCGGGVVTRRRQCNNPRPAFGGRACVGADLQAEMCNTQACEKTQLEFMSQQCARTDGQPLRSSPGGASFYHWGAAVPHSQGDALCRHMCRAIGESFIMKRGDSFLDGTRCMPSGPREDGTLSLCVSGSCRTFGCDGRMDSQQVWDRCQVCGGDNSTCSPRKGSFTAGRAREYVTFLTVTPNLTSVYIANHRPLFTHLAVRIGGRYVVAGKMSISPNTTYPSLLEDGRVEYRVALTEDRLPRLEEIRIWGPLQEDADIQVYRRYGEEYGNLTRPDITFTYFQPKPRQAWVWAAVRGPCSVSCGAGLRWVNYSCLDQARKELVETVQCQGSQQPPAWPEACVLEPCPPYWAVGDFGPCSASCGGGLRERPVRCVEAQGSLLKTLPPARCRAGAQQPAVALETCNPQPCPARWEVSEPSSCTSAGGAGLALENETCVPGADGLEAPVTEGPGSVDEKLPAPEPCVGMSCPPGWGHLDATSAGEKAPSPWGSIRTGAQAAHVWTPAAGSCSVSCGRGLMELRFLCMDSALRVPVQEELCGLASKPGSRREVCQAVPCPARWQYKLAACSVSCGRGVVRRILYCARAHGEDDGEEILLDTQCQGLPRPEPQEACSLEPCPPRWKVMSLGPCSASCGLGTARRSVACVQLDQGQDVEVDEAACAALVRPEASVPCLIADCTYRWHVGTWMECSVSCGDGIQRRRDTCLGPQAQAPVPADFCQHLPKPVTVRGCWAGPCVGQGTPSLVPHEEAAAPGRTTATPAGASLEWSQARGLLFSPAPQPRRLLPGPQENSVQSSACGRQHLEPTGTIDMRGPGQADCAVAIGRPLGEVVTLRVLESSLNCSAGDMLLLWGRLTWRKMCRKLLDMTFSSKTNTLVVRQRCGRPGGGVLLRYGSQLAPETFYRECDMQLFGPWGEIVSPSLSPATSNAGGCRLFINVAPHARIAIHALATNMGAGTEGANASYILIRDTHSLRTTAFHGQQVLYWESESSQAEMEFSEGFLKAQASLRGQYWTLQSWVPEMQDPQSWKGKEGT
In the case of B1, the percent enhancement by antibody 17G2 of catalytic efficiency (kcat/Km) of VWF96 proteolysis; intramolecular Spacer-CUB interaction within full-length ADAMTS13 came to 188%.
